This note sets out measurements from US20200031919A1 (SUZHOU KANOVA BIOPHARMACEUTICAL, published 2020).

Where two headings read alike, the source gives them in different places.

The target in one assay is T1, cynomolgus IL-17F (cynomolgus, UniProt G7P4V0 31-163).
T1 construct: also called cynomolgus 17F
T1 sequence: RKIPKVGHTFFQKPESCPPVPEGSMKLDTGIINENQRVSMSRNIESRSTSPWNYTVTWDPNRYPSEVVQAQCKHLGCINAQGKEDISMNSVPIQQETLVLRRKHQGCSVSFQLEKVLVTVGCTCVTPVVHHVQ
Description: ELISA, cynomolgus IL-17F coated at 2 µg/ml. The method, then:
(§1) Human IgG1 (hIgG1) was used as a control antibody. EC50 values were calculated by GraphPad Prism.
(§2) The binding of anti-IL-17A/F antibody to cynomolgus IL-17A and IL-17F was determined by ELISA. Assay was performed in the same method of Example 7, except that cynomolgus IL-17A (Gene ID: XM 005552759.2, in-house production according to standard molecular biology method, Carson S, Molecular Biology Techniques, 2012) and IL-17F (Gene ID: XM_005552757.2, in-house production according to standard molecular biology method, Carson S, Molecular Biology Techniques, 2012) were used to replace human IL-17A and F, respectively.

For the next assay, the target named is T2, IL-17A/F heterodimer (UniProt Q16552 24-155; Q96PD4 31-163, limits assumed).
T2 construct: Commercial heterodimer
T2 sequence (looked up) 1: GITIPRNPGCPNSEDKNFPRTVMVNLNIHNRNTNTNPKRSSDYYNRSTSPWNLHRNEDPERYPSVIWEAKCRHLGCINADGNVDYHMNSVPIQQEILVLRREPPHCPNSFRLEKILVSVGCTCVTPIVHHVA
T2 sequence (looked up) 2: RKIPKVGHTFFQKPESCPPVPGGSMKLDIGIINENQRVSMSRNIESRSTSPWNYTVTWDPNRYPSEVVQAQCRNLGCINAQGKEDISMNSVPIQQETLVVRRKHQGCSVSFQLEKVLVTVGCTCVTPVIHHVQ
Description: blocking ELISA: 0.5 ug/ml hIL-17A/F heterodimer coated, antibody titrated, then 10 ug/ml hIL17RA-mIgG2aFc (blocked ligand partner); OD450 falls from about 1.9 to a lower plateau of about 0.6. Here is the method: (§3) The effect of the anti-IL17A/F antibody (produced in Example 2) on the binding of IL-17A, IL-17F or IL17A/F to the IL-17 receptor was tested by ELISA. IL-17A, IL-17F or IL-17A/F was coated in 96 well plate with 50 μl/well protein solution (protein concentration was […]) at 4° C. overnight. The wells were blocked with 1% BSA in PBST (tween 0.05%) by 200 μl/well at room temperature for 1 hour. The wells were washed 3 times with PBST. The anti-IL17A/F antibody and isotype control antibody human IgG1 (Biolegend cat# 403102) were diluted by PBS from 30 μg/ml down to 0.0005 μg/ml ([…]). The antibodies were added into the corresponding wells (50 μl/well) and incubated at room temperature for 4 hours. The wells were washed 3 times with PBST. hIL17RA-mIgG2aFc (10 μg/ml, in-house production according to standard molecular biology technology, Carson S, Molecular Biology Techniques, 2012) were added into each well (50 μl/well) and incubated at room temperature for 1 hour. The wells were washed 3 times with PBST. Goat anti-human IgG-HRP (1:5000 in PBS, EASYBIO Cat# BE0102) were added into each well (50 μl/well) and incubated at room temperature for 30 min. The wells were washed 6 times with PBST. […] The plate was read at 450 nm and 570 nm.
Background: ELISA stands for enzyme-linked immunosorbent assay.

For another assay, the target named is T3, cynomolgus IL-17A (cynomolgus, UniProt A0A2K5TTB0 24-155).
T3 sequence: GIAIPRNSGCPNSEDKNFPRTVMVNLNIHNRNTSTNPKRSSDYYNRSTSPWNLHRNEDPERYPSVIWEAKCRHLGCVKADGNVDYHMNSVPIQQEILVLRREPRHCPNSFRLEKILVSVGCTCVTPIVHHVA
The experiment in a line: ELISA, cynomolgus IL-17A coated at 2 µg/ml. The method, then: as §1, §2

Assay [1] deals with T4, human IL-17F (human, UniProt Q96PD4 31-163).
T4 construct: Commercial recombinant protein; also called hIL-17F
T4 sequence (looked up): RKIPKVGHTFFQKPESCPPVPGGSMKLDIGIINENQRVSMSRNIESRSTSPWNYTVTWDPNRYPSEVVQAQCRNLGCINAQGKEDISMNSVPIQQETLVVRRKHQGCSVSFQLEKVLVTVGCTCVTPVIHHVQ
The experiment in a line: ELISA, human IL-17F coated at 2 µg/ml. The method, then:
(§4) MaxiSorp 96-well plates (NUNC # 449824, www.thermofisher.com) were coated with 2 μg/ml human IL-17A (Cell Signaling #89285F, www.cellsignal.com), human IL-17F (Cell Signaling #8906LC, www.cellsignal.com), human IL-17B (Peprotech #200-28, www.peprotech.com), human IL-17C (R&D systems #1234-IL-025/CF, www.rndsystems.com), human IL-17D ((Peprotech #200-27, www.peprotech.com), human IL-17E (R&D systems #1258-IL-025/CF, www.rndsystems.com) in 1× PBS (50 μl/well) respectively. Plates were incubated at 4° C. overnight. Coating solution was removed and plates were washed once with 200 μl/well PBST (1× PBS with 0.05% tween-20). Then 200 μl/well blocking buffer (1× PBS with 0.05% tween-20, 3% BSA) was added and incubated at room temperature for 1 hour. Blocking buffer was removed and plates were washed three times with 200 μl/well PBST (1× PBS with 0.05% tween-20). The anti-IL17A/F antibody, hIgG VH1-1/VL5, was diluted to 10, 3.33, 1.11, 0.37, 0.123, 0.041, 0.0137, 0.0046, 0.0015, 0.00031, 0.000102, 0.000034 μg/ml by 1× PBS and added to the plates (50 μl/well). Plates were incubated at room temperature for 2 hours. Antibodies in the wells were removed and plates were washed three times with 200 μl/well PBST (1× PBS with 0.05% tween-20). […] Plates were read at 450 nm. […]

Assay [2] has as its target T5, human IL-17A (human, UniProt Q16552 24-155).
T5 construct: Commercial recombinant protein; also called hIL-17A; CTLA-8
T5 sequence (looked up): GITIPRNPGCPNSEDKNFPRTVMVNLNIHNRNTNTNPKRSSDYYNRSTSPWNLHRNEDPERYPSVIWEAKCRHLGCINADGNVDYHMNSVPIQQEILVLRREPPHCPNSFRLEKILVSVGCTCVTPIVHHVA
Description: ELISA, human IL-17A coated at 2 µg/ml. The method, then: as §4

For assay [3], the target named is T4, human IL-17F. Description: blocking ELISA: 0.5 ug/ml hIL-17F coated, antibody titrated, then 10 ug/ml hIL17RA-mIgG2aFc (blocked ligand partner); OD450 falls from about 1.35 to a lower plateau of about 0.87. The method, then: as §3
Assay [4] has as its target T5, human IL-17A. Description: SPR (Biacore T200), antibody captured by anti-human Fc, IL-17 as analyte. The method, then: Anti-human Fc gamma specific antibody (Jackson Immuno Research, Lot no. 124448, Code. 109-008-098) was immobilized onto the sensor chip using amine coupling method. Four antibodies secreted to the culture medium plus the parental antibody were injected and captured by anti-human Fc antibody via Fc (capture phase) individually. After equilibration, IL-17 was injected for 300 seconds (association phase) followed by the injection of running buffer for 1200s (dissociation phase). Responses of reference flow cell (flow cell 1) were subtracted from those of humanized antibodies flow cells during each cycle. The surface was regenerated before the injection of another humanized antibody. The process was repeated until all antibodies are analyzed. The off-rates of humanized antibodies were obtained from fitting the experimental data locally to 1:1 interaction model using the Biacore T200 evaluation software. The antibodies were ranked by their dissociation rate constants (off-rates, Kd). The binders that interact with IL-17 with similar affinity to parental antibody were selected.

Assay [5] has as its target T5, human IL-17A. Description: ELISA, human IL-17A coated at 2 µg/ml. The method, then:
as §4
The source holds these as a separate data set.

B1: anti-IL17A/F antibody hIgG VH1-1/VL5 (antibody, V domains shown)
VH: QFQLVQSGAEVKKPGASVKVSCKASGYTFTDYNLNWVRQAPGKGLEWMGVIHPDYGTTSYNQKFKDRVTMTVDTSTSTVYMELSSLRSEDTAVYYCVRYDYGDAMDYWGQGTLVTVSS
VL: DIVMTQSPLSLSVTPGQPASISCRSSQSLVHSNGNTYLHWYLQKPGQPPQLLIYKVSNRFSGVPDRFSGSGSGTDFTLKISRVEAEDVGVYYCSQSTHVPLTFGQGTKLEIKR
notes: also called VH1-1/VL5 mAb; hIgGc VH1-1/VL5
For B1, the EC50 was found to be 0.18 nM in the assay with cynomolgus IL-17F; 0.06 nM with cynomolgus IL-17A; 0.042 nM with human IL-17F [1]; 0.039 nM with human IL-17A [2]; 0.046 nM in the assay with human IL-17A [5]. For the same molecule, the half-inhibitory concentration (IC50) was found to be 0.45 nM with IL-17A/F heterodimer and 0.67 nM in the assay with human IL-17F [3]. In addition, the equilibrium dissociation constant (Kd) in the assay with human IL-17A [4] amounted to 0.29 nM. Further, in the assay with human IL-17A [4], the koff is 0.00059 s⁻¹. The molecule also returned an on-rate constant (kon) in the assay with human IL-17A [4] of 2e+06 M⁻¹ s⁻¹.

One may read the EC50 as the concentration giving half of the maximal effect. What is called IC50 is the point on the concentration scale where inhibition reaches its midpoint. One may read the Kd as a measure of binding affinity in units of concentration. The low end stands for a tighter complex, the high end for a looser complex. In general, koff refers to the first-order rate constant of dissociation. As usually defined, the kon is the rate constant with which the complex forms. A low value points to slow association.
